# Columns and labels:
# Factor IXα (human) = Factor IXα (human) (UniProt P00740); test: ELISA affinity determination (Kim et al.)
# [1] = target: intact human Factor IX (human) (UniProt P00740); test: ELISA affinity determination (Kim et al.)
# Factor X [2] = target: Factor X (UniProt P00742); test: affinity chromatography on CLB-FIX D4-Sepharose; 73 ml
# Factor II [3] = target: Factor II (UniProt P00734); test: as above
# [4] = target: intact human Factor IX (human) (UniProt P00740); test: CLB-FIX D4 affinity chromatography, Factor IXα mixture applied
# Factor IXaβ (human) [5] = target: Factor IXaβ (human) (UniProt P00740); test: as above
# [6] = target: intact human Factor IX (human) (UniProt P00740); test: affinity chromatography on CLB-FIX D4-Sepharose, clotting activity; 440 ml
# [7] = target: intact human Factor IX (human) (UniProt P00740); test: CLB-FIX D4 affinity chromatography, purified Factor IX applied
# [8] = target: intact human Factor IX (human) (UniProt P00740); test: cell-based or functional assay
# [9] = target: intact human Factor IX (human) (UniProt P00740); test: CLB-FIX D4 affinity chromatography, Factor IXaβ mixture applied
# Factor IXaβ (human) [10] = target: Factor IXaβ (human) (UniProt P00740); test: as above
# Factor X [11] = target: Factor X (UniProt P00742); test: affinity chromatography on CLB-FIX D4-Sepharose; 440 ml
# Factor II [12] = target: Factor II (UniProt P00734); test: as above
# [13] = target: intact human Factor IX (human) (UniProt P00740); test: affinity chromatography on CLB-FIX D4-Sepharose, clotting activity; 73 ml
# [14] = target: intact human Factor IX (human) (UniProt P00740); test: affinity chromatography of prothrombin complex concentrate, elution with 2 M KSCN
# Sequence of UniProt P00742 (P00742 41-488 limits assumed): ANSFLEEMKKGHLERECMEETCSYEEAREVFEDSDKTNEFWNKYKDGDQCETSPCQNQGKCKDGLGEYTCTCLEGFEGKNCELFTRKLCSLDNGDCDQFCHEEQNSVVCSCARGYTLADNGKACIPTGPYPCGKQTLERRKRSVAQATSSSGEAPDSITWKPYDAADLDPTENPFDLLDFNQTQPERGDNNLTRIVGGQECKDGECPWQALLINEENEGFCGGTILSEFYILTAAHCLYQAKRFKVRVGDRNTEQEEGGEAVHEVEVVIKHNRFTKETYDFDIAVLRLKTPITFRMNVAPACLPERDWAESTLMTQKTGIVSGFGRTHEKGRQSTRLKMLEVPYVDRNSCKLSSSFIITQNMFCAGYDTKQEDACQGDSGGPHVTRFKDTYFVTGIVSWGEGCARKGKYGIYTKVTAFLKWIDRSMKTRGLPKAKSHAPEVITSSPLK
substance,measurement,setting,value
monoclonal antibody CLB-FIX D4,Kd,Factor IXα (human),0.3 nM
same,fold alteration of affinity (Factor IXα against intact Factor IX),Factor IXα (human),> 4 fold
same,Kd,[1],1.2 nM
same,FX in eluate (U/ml),Factor X [2],< 0.003 U/ml
same,FII in eluate (U/ml),Factor II [3],< 0.008 U/ml
same,Intact FIX eluted,[4],85 µg
same,FIXaβ eluted,Factor IXaβ (human) [5],< 0.001 µg
same,FIXaβ unbound,Factor IXaβ (human) [5],7 µg
same,FIX in flow through (U/ml),[6],10.4 U/ml
same,Intact FIX eluted,[7],588 µg
same,Intact FIX unbound,[7],23 µg
same,Protein eluted,[7],580 µg
same,Protein unbound,[7],20 µg
same,"Factor IX clotting activity (one stage coagulation assay), residual activity after incubation with antibody",[8],> 90%
same,Intact FIX eluted,[9],50 µg
same,FIXaβ eluted,Factor IXaβ (human) [10],< 0.001 µg
same,FIXaβ unbound,Factor IXaβ (human) [10],550 µg
same,FX in flow through (U/ml),Factor X [11],51 U/ml
same,FII in flow through (U/ml),Factor II [12],49.7 U/ml
same,FIX in eluate (U/ml),[13],98.7 U/ml
same,Factor IX activity recovered in the eluate,[14],67%
